From US20200283521A1 (GRANULAR THERAPEUTICS, published 2020)
Where two headings read alike, the source gives them in different places.

Columns and labels:
Assay in all cases: direct ELISA on coated protein, IgG1
hOX40-Fc [1] = biological target: T1, hOX40-Fc
T1 construct: member of the panel m9
T1 chain: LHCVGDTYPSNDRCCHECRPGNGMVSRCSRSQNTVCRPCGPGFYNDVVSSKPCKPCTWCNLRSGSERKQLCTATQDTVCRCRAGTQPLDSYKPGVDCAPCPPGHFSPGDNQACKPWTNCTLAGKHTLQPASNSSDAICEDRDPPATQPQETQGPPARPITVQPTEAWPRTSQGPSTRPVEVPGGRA

hVCAM-1 [2] = biological target: T2, hVCAM-1 (human, UniProt P19320)
T2 construct: purified recombinant protein; member of the panel m9
T2 sequence (looked up): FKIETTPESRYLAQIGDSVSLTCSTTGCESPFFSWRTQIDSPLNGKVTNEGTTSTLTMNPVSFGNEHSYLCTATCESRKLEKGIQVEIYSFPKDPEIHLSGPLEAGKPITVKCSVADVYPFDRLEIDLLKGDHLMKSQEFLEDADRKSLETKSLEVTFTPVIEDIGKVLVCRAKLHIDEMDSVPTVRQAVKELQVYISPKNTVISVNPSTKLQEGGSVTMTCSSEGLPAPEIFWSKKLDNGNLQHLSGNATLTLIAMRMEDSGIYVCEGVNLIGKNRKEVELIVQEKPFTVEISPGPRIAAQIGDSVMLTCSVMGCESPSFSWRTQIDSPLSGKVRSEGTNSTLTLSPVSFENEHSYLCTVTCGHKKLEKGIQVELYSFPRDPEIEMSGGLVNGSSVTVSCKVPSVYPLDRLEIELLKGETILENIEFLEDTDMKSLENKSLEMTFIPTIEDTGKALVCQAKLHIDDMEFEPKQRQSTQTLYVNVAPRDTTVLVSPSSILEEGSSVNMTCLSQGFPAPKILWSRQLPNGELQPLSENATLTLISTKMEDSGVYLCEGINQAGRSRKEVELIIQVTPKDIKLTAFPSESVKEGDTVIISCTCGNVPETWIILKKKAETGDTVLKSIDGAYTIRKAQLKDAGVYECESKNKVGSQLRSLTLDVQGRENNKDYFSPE

h4-1BB-Fc [3] = biological target: T3, h4-1BB-Fc
T3 construct: member of the panel m9
T3 sequence (chain, as listed by the source limits assumed): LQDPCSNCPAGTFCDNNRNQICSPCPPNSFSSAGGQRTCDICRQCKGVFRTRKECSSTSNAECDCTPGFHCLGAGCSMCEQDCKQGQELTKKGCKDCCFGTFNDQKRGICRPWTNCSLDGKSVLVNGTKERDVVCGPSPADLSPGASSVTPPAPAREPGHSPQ

hCD4 = biological target: T4, hCD4 (human, UniProt P01730)
T4 construct: purified recombinant protein; member of the panel m9

hVCAM-Fc = biological target: T5, hVCAM-Fc
T5 construct: member of the panel m9
T5 chain: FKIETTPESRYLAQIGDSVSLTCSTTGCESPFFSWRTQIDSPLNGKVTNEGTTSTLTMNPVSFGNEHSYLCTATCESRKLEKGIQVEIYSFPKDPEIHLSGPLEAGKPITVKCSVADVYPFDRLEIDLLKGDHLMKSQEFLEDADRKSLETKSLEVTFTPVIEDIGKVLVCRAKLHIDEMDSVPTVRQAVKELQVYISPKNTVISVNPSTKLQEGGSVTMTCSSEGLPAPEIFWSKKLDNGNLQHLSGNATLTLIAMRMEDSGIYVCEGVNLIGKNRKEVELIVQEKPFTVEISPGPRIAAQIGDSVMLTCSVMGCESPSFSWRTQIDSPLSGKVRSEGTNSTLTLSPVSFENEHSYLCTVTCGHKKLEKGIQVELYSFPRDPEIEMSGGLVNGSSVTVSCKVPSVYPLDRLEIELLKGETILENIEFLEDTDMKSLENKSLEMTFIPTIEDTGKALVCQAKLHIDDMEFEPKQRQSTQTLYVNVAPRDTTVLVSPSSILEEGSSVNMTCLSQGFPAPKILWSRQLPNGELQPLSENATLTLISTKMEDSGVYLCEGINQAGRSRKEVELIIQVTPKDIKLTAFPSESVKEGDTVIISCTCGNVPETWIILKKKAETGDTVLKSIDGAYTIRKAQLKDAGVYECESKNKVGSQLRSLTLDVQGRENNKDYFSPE

hOX40-Fc [4] = biological target: T1, hOX40-Fc
hICAM-1-Fc = biological target: T6, hICAM-1-Fc (human, UniProt P05362)
T6 construct: Fc fusion; member of the panel m9
T6 sequence (P05362 28-480 limits assumed): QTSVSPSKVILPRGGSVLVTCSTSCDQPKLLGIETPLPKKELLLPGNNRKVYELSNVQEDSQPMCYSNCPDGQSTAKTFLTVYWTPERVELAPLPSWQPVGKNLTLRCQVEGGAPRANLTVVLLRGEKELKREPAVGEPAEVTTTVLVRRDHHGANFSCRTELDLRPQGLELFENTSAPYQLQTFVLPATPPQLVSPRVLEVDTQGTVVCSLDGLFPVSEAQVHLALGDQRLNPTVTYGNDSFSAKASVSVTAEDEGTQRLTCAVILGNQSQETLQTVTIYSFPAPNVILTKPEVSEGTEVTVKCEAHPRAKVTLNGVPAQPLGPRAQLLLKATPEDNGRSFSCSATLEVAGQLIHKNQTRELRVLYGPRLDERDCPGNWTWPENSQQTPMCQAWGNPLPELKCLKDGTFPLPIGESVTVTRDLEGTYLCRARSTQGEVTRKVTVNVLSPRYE

hVCAM-1 [5] = biological target: T2, hVCAM-1; remark: listed apart in the source
h4-1BB-Fc [6] = biological target: T3, h4-1BB-Fc; remark: listed apart in the source
hDR3-Fc = biological target: T7, hDR3-Fc (human, UniProt Q93038)
T7 construct: Fc fusion; member of the panel m9
T7 sequence (looked up): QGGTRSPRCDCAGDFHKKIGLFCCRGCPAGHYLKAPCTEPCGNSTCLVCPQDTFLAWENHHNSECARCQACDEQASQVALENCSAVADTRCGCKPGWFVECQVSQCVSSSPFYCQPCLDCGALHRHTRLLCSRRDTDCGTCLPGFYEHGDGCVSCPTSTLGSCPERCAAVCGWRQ

hDR6-Fc = biological target: T8, hDR6-Fc (human, UniProt O75509)
T8 construct: Fc fusion; member of the panel m9
T8 sequence (looked up): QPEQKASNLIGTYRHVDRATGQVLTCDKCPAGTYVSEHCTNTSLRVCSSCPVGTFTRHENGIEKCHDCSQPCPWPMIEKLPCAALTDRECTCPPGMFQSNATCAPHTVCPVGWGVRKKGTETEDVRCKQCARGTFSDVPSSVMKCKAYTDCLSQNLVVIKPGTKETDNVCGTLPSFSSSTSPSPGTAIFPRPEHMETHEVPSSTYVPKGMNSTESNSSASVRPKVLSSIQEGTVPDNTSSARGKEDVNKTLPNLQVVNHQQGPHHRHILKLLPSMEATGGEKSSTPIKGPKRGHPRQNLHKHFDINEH

hCMET-Fc = biological target: T9, hCMET-Fc (The natural ectodomain is cleaved by furin after residue 307 into disulfide-linked alpha and beta chains. It is given here as one continuous stretch.)
T9 construct: member of the panel m9
T9 chain: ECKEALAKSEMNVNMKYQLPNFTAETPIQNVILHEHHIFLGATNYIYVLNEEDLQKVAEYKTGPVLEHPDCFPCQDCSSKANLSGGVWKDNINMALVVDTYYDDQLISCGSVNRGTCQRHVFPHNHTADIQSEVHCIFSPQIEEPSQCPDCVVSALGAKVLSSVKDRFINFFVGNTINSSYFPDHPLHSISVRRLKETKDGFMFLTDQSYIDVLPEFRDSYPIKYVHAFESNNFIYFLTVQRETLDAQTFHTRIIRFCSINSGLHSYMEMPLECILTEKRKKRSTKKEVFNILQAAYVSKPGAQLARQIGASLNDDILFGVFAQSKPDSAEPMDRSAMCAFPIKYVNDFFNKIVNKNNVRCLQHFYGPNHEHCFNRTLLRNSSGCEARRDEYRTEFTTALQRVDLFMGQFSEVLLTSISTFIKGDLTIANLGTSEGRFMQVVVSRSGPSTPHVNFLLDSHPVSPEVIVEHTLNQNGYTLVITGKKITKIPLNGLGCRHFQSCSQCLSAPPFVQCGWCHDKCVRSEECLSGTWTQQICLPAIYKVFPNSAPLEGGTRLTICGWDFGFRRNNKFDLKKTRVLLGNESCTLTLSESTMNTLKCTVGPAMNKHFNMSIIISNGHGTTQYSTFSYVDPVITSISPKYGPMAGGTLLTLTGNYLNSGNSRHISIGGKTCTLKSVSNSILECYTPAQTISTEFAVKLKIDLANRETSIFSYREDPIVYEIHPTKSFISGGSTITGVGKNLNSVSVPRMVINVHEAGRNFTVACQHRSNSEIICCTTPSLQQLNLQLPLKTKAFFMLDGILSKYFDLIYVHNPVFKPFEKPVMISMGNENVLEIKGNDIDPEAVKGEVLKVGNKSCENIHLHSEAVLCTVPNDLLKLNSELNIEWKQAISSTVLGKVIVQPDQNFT

Measured: binding result

B1: MH5.22 (antibody, IgG1, V domains shown)
VH: QVQLVQSGAEVKKPGASVKVSCKASGYTFTDFYMNWVRQAPGQGLEWMGRIYPASGNTYYAQKFQGRVTMTRDTSTSTVYMELSSLRSEDTAVYYCARGVWYYDYWGQGTLVTVSS
VL: DIQMTQSPSSLSASVGDRVTITCRASQGIRTNLAWFQQKPGKAPKSLIYAASSLQSGVPSRFSGSGSGTDFTLTISSLQPEDFATYYCQQYANYPRTFGGGTKVEIK
notes: IgG1; also called C-KIT-MH5.22
no binding (tested: 1 µg/ml): hOX40-Fc [1] | hVCAM-1 [2] | h4-1BB-Fc [3] | hCD4

B2: MH1, human IgG1 (antibody, V domains shown)
VH: QVQLVQSGAEVKKPGASVKVSCKASGYTFTDYYMNWVRQAPGQGLEWMGRIYPGSGNTYYAQKFQGRVTMTRDTSTSTVYMELSSLRSEDTAVYYCARGVYYYDYWGQGTLVTVSS
VL: DIQMTQSPSSLSASVGDRVTITCRASQGIRTNLAWFQQKPGKAPKSLIYAASSLQSGVPSRFSGSGSGTDFTLTISSLQPEDFATYYCQQYNSYPRTFGGGTKVEIK
notes: IgG1; also called IgG1-MH1
not listed: hOX40-Fc [1] | hVCAM-1 [2] | h4-1BB-Fc [3] | hCD4
no binding (tested: 1 µg/ml): all other assays above
